Experimental data reported in patent US20050064507.

Assays:
[1] = biological target: T1, ARHGAP6 peptide SAQITIPKDGQKRKKSLRKK (SEQ ID NO:156) (not fully specified)
T1 chain: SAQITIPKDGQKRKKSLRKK

[2] = biological target: T2, MLK3 peptide HVRRRRGTFKRSKLRARD (SEQ ID NO:76) (not fully specified)
T2 chain: HVRRRRGTFKRSKLRARD

[3] = biological target: T3, PLEK peptide KFARKSTRRSIRLPE (SEQ ID NO:78) (not fully specified)
T3 chain: KFARKSTRRSIRLPE

[4] = biological target: T4, MAP3K14 peptide WKGKRRSKARKKRK (SEQ ID NO:100) (not fully specified)
T4 chain: WKGKRRSKARKKRK

[5] = biological target: T5, cyclophilin G peptide TEEKSKKRKKKHRKNSRKHK (SEQ ID NO:165) (not fully specified)
T5 chain: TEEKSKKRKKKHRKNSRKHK

[6] = biological target: T6, phospholemman peptide EEGTFRSSIRRLSTRRR (SEQ ID NO:116) (not fully specified)
T6 chain: EEGTFRSSIRRLSTRRR

[7] = biological target: T7, p164-RhoGEF peptide PRLIRRGSKKRPAR (SEQ ID NO:82) (not fully specified)
T7 chain: PRLIRRGSKKRPAR

[8] = biological target: T8, EBNA1BP2 peptide KRPGKKGSNKRPGKR (SEQ ID NO:112) (not fully specified)
T8 chain: KRPGKKGSNKRPGKR

[9] = biological target: T9, NMDAR1 peptide RAITSTLASSFKRRR (SEQ ID NO:122) (not fully specified)
T9 chain: RAITSTLASSFKRRR

[10] = biological target: T10, Myt1 kinase peptide PPRTPGWHQLQPRRVSFRGE (SEQ ID NO:163) (not fully specified)
T10 chain: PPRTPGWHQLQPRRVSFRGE

[11] = biological target: T11, PARIS1 peptide EYLERRASRRRAV (SEQ ID NO:89) (not fully specified)
T11 chain: EYLERRASRRRAV

[12] = biological target: T12, MCM2 peptide VQRHRSMRKTFARYLSFRRD (SEQ ID NO:129) (not fully specified)
T12 chain: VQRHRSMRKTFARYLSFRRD

[13] = biological target: T13, titin peptide PFEVVWYKDKRQLRSSKKYK (SEQ ID NO:160) (not fully specified)
T13 chain: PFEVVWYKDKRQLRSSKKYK

[14] = biological target: T14, slp4 peptide TYLLPDKSRQGKRKTSIKRD (SEQ ID NO:153) (not fully specified)
T14 chain: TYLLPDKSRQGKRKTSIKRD

[15] = biological target: T15, PKD1 peptide RVVQSVKHTKRKSSTVMK (SEQ ID NO:149) (not fully specified)
T15 chain: RVVQSVKHTKRKSSTVMK

[16] = biological target: T16, PARIS1 peptide RELEQLKAEYLERRASRRRA (SEQ ID NO:148) (not fully specified)
T16 chain: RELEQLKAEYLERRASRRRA

[17] = biological target: T17, LIMK-2 peptide LRRRSLRRSNSISKSPGP (SEQ ID NO:121) (not fully specified)
T17 chain: LRRRSLRRSNSISKSPGP

[18] = biological target: T18, dag kinase iota peptide NRKKKRTSFKRKA (SEQ ID NO:117) (not fully specified)
T18 chain: NRKKKRTSFKRKA

[19] = biological target: T19, MGC2941 peptide RPTPGDGEKRSRIKKSKKRK (SEQ ID NO:139) (not fully specified)
T19 chain: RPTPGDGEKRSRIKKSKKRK

[20] = biological target: T20, p164-RhoGEF peptide PRLIRRGSKKRPAR (SEQ ID NO:124) (not fully specified)
T20 chain: PRLIRRGSKKRPAR

[21] = biological target: T21, SYTL4 peptide RQGKRKTSIKRDTVNPL (SEQ ID NO:87) (not fully specified)
T21 chain: RQGKRKTSIKRDTVNPL

[22] = biological target: T22, CACNA1C peptide RGFLRSASLGRRASFHLE (SEQ ID NO:96) (not fully specified)
T22 chain: RGFLRSASLGRRASFHLE

[23] = biological target: T23, ubiquitin specific protease 8 peptide RARRDSLKKIEIW (SEQ ID NO:136) (not fully specified)
T23 chain: RARRDSLKKIEIW

[24] = biological target: T24, dag kinase iota peptide PQNSLKASNRKKKRTSFKRK (SEQ ID NO:151) (not fully specified)
T24 chain: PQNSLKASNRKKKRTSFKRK

[25] = biological target: T25, MARCKS peptide KKRFSFKKSFKLSGFSFKKN (SEQ ID NO:123) (not fully specified)
T25 chain: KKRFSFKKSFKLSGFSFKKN

[26] = biological target: T26, NF1 peptide AGSFKRNSIKKIV (SEQ ID NO:102) (not fully specified)
T26 chain: AGSFKRNSIKKIV

[27] = biological target: T27, PPP1R14A peptide QKRHARVTVKYDRRE (SEQ ID NO:107) (not fully specified)
T27 chain: QKRHARVTVKYDRRE

[28] = biological target: T28, splicing factor, arginine/serine-rich 4 peptide RSRSRSRSKSKDKRKSRKRS (SEQ ID NO:134) (not fully specified)
T28 chain: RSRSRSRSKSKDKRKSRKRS

[29] = biological target: T29, NF1 peptide SQVQKQRSAGSFKRNSIKKI (SEQ ID NO:127) (not fully specified)
T29 chain: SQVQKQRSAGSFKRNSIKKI

[30] = biological target: T30, pleckstrin 1 peptide KAIKAIEGGQKFARKSTRRS (SEQ ID NO:126) (not fully specified)
T30 chain: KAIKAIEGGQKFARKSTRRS

B1: PKC-theta (protein)
chain: MSPFLRIGLSNFDCGSCQSCQGEAVNPYCAVLVKEYVESENGQMYIQKKPTMYPPWDSTFDAHINKGRVMQIIVKGKNVDLISETTVELYSLAERCRKNNGKTEIWLELKPQGRMLMNARYFLEMSDTKDMNEFETEGFFALHQRRGAIKQAKVHHVKCHEFTATFFPQPTFCSVCHEFVWGLNKQGYQCRQCNAAIHKKCIDKVIAKCTGSAINSRETMFHKERFKIDMPHRFKVYNYKSPTFCEHCGTLLWGLARQGLKCDACGMNVHHRCQTKVANLCGINQKLMAEALAMIESTQQARCLRDTEQIFREGPVEIGLPCSIKNEARPPCLPTPGKREPQGISWESPLDEVDKMCHLPEPELNKERPSLQIKLKIEDFILHKMLGKGSFGKVFLAEFKKTNQFFAIKALKKDVVLMDDDVECTMVEKRVLSLAWEHPFLTHMFCTFQTKENLFFVMEYLNGGDLMYHIQSCHKFDLSRATFYAAEIILGLQFLHSKGIVYRDLKLDNILLDKDGHIKIADFGMCKENMLGDAKTNTFCGTPDYIAPEILLGQKYNHSVDWWSFGVLLYEMLIGQSPFHGQDEEELFHSIRMDNPFYPRWLEKEAKDLLVKLFVREPEKRLGVRGDIRQHPLFREINWEELERKEIDPPFRPKVKSPFDCSNFDKEFLNEKPRLSFADRALINSMDQNMFRNFSFMNPGMERLIS
- in vitro phosphorylation, 1 uM peptide (% of best substrate) [1]: 18
- in vitro phosphorylation, 10 uM peptide (% of best substrate) [1]: 23
- Peptide phosphorylation by PKC-theta [2]: 99
- in vitro phosphorylation (% of best substrate) [2]: 100
- in vitro phosphorylation (% of best substrate) [3]: 47
- in vitro phosphorylation (% of best substrate) [4]: 56
- in vitro phosphorylation, 1 uM peptide (% of best substrate) [5]: 16
- in vitro phosphorylation, 10 uM peptide (% of best substrate) [5]: 14
- in vitro phosphorylation, 1 uM peptide (% of best substrate) [6]: 83
- in vitro phosphorylation, 10 uM peptide (% of best substrate) [6]: 78
- in vitro phosphorylation (% of best substrate) [7]: 49
- in vitro phosphorylation (% of best substrate) [8]: 17
- in vitro phosphorylation, 1 uM peptide (% of best substrate) [9]: 66
- in vitro phosphorylation, 10 uM peptide (% of best substrate) [9]: 42
- in vitro phosphorylation, 1 uM peptide (% of best substrate) [10]: 14
- in vitro phosphorylation, 10 uM peptide (% of best substrate) [10]: 11
- in vitro phosphorylation (% of best substrate) [11]: 60
- in vitro phosphorylation, 1 uM peptide (% of best substrate) [12]: 48
- in vitro phosphorylation, 10 uM peptide (% of best substrate) [12]: 25
- in vitro phosphorylation, 1 uM peptide (% of best substrate) [13]: 19
- in vitro phosphorylation, 10 uM peptide (% of best substrate) [13]: 25
- in vitro phosphorylation, 1 uM peptide (% of best substrate) [14]: 22
- in vitro phosphorylation, 10 uM peptide (% of best substrate) [14]: 18
- in vitro phosphorylation, 1 uM peptide (% of best substrate) [15]: 13
- in vitro phosphorylation, 10 uM peptide (% of best substrate) [15]: 14
- in vitro phosphorylation, 1 uM peptide (% of best substrate) [16]: 34
- in vitro phosphorylation, 10 uM peptide (% of best substrate) [16]: 34
- Peptide phosphorylation by PKC-theta [17]: 57
- in vitro phosphorylation, 1 uM peptide (% of best substrate) [17]: 51
- in vitro phosphorylation, 10 uM peptide (% of best substrate) [17]: 57
- in vitro phosphorylation, 1 uM peptide (% of best substrate) [18]: 84
- in vitro phosphorylation, 10 uM peptide (% of best substrate) [18]: 78
- in vitro phosphorylation, 1 uM peptide (% of best substrate) [19]: 31
- in vitro phosphorylation, 10 uM peptide (% of best substrate) [19]: 17
- in vitro phosphorylation, 1 uM peptide (% of best substrate) [20]: 53
- in vitro phosphorylation, 10 uM peptide (% of best substrate) [20]: 57
- in vitro phosphorylation (% of best substrate) [21]: 65
- in vitro phosphorylation (% of best substrate) [22]: 21
- in vitro phosphorylation, 1 uM peptide (% of best substrate) [23]: 42
- in vitro phosphorylation, 10 uM peptide (% of best substrate) [23]: 28
- in vitro phosphorylation, 1 uM peptide (% of best substrate) [24]: 25
- in vitro phosphorylation, 10 uM peptide (% of best substrate) [24]: 19
- in vitro phosphorylation, 1 uM peptide (% of best substrate) [25]: 47
- in vitro phosphorylation, 10 uM peptide (% of best substrate) [25]: 32
- in vitro phosphorylation (% of best substrate) [26]: 28
- in vitro phosphorylation (% of best substrate) [27]: 40
- in vitro phosphorylation, 1 uM peptide (% of best substrate) [28]: 36
- in vitro phosphorylation, 10 uM peptide (% of best substrate) [28]: 16
- in vitro phosphorylation, 1 uM peptide (% of best substrate) [29]: 45
- in vitro phosphorylation, 10 uM peptide (% of best substrate) [29]: 58
- in vitro phosphorylation, 1 uM peptide (% of best substrate) [30]: 46
- in vitro phosphorylation, 10 uM peptide (% of best substrate) [30]: 45
